This note sets out measurements from US6261569.

This test addresses riMod, retro-inverso model peptide. The test is described as follows: ELISA, immobilised riMod-BSA.

Turning to “non-immune mouse serum (polyclonal serum or antibody)”, the titre (reciprocal of highest serum dilution) is 80.
